Consider five substances from PMC6212828.

Data set [1] concerns the target T1, Fur (Bacillus subtilis) (UniProt P54574).
T1 sequence: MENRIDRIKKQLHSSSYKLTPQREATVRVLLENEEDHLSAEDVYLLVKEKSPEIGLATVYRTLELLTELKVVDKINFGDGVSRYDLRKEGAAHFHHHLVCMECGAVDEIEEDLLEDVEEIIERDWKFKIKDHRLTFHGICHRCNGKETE
In words: EMSA. Conditions: EMSA with 1 mM MnCl2; ~1 fmol 32P-labelled probe (B, C) or ~180 ng DNA with ethidium bromide stain, 5% native PAGE (A); remaining buffer, pH and temperature ….

For data set [2], the system named is Fur (Bacillus subtilis). In words: EMSA. Conditions: EMSA with 1 mM MnCl2; ~1 fmol 32P-labelled probe (B, C) or ~180 ng DNA with ethidium bromide stain, 5% native PAGE (A); remaining buffer, pH and temperature ….

The substance “TAGACCTTTGTCCTGCACAGAGGTCTTTTTTTGTTACAGTTTTATAGTACTTTTATTTCATTTTCGTAAAATGTAACAAAATTACTTGACGTAAACAAGTTATGTATATATACTAGCTTACATTAAGTAAGTGATAACATTTATCAAGGAGGATAAAATGAATAAATCATTTGAAATTGGCACATTACTTTTAAGAG (double strand) [catD promoter probe (-121 to +76)]” had a Kd with Fur (Bacillus subtilis) [1] of 700 nM.

The substance “catD promoter 323-bp HindIII fragment (-155 to +168)” gave a K half with Fur (Bacillus subtilis) [2] of 500 nM.

Turning to catD promoter probe (-121 to +76), the Kd in the data set with Fur (Bacillus subtilis) [2] was determined as 700 nM.

Substance catD ORF probe (+137 to +278) came in with a binding in the data set on Fur (Bacillus subtilis) [2] greater than 2 µM.

In the case of “catD ORF 218-bp HindIII fragment (+169 to +386)”, the binding in the data set on Fur (Bacillus subtilis) [2] was greater than 3 µM.
